{
  "source": "patent US20260286308A1",
  "about": "“COMPOSITION CONTAINING EXTRACELLULAR MATRIX AND MATRIX-BOUND VESICLES FOR PRODUCING EXTRACELLULAR MATRIX AND PREPARATION METHOD THEREFOR” (HLB CELL CO., LTD, priority 2023, published 2026)",
  "key": {"Human fibroblasts [1]": {"system": "Human fibroblasts", "protocol": "The analysis method followed the manufacturer's instructions.\nCulture media each lacking an individual factor were prepared, and then culture was performed according to Example 1.1.\nThen, culture was performed according to Example 1.1."}, "Human fibroblasts [2]": {"system": "Human fibroblasts", "assay": "Total collagen content in cell culture of single-cultured human fibroblasts (Sirius Red kit, absorbance 530 nm)", "settings": "10 ng/mL epidermal growth factor added alone (Table 3 No. 2); FIG. 17", "experimental": "To measure the human collagen content in the extracellular matrix present in a culture obtained according to each example described below, quantitative analysis was conducted by utilizing a commercially available Sirius Red kit (Chondrex, #9062). The analysis method followed the manufacturer's instructions. Specifically, Sirius Red solution was added to the culture, followed by incubation, and the precipitated collagen was then mixed with an acidic solution and quantitatively analyzed by measurement of absorbance at 530 nm.\nHuman fibroblasts were seeded at a density of 3×10^5 cells per 150-mm^2 culture dish. The cells were cultured in high-glucose Dulbecco's Modified Eagle's Medium (DMEM) supplemented with 10% fetal bovine serum and 1% penicillin for 7 days while a growth medium was exchanged every 2-3 days.\n(§1) After being cultured according to Example 1.1.1, the cells were further cultured from day 8 using a serum-free/xeno-free culture medium [Dulbecco's Modified Eagle Medium: Ham's F-12 (1:1) supplemented with 100 (DMEM/F12) U/mL penicillin/streptomycin, 2 mM L-alanyl-L-glutamine, 5 μg/L selenium, 50 M ascorbate-2-phosphate, 10 mg/L insulin, 1 μM hydrocortisone, 0.02 nM triiodothyronine, 1 μM isoprenaline, and 10 μg/L epidermal growth factor] while the medium was exchanged at intervals of 2 to 3 days. […] The cell culture after collection was analyzed according to Example 3. […]"}, "Human fibroblasts [3]": {"system": "Human fibroblasts", "assay": "Laminin content in cell culture of single-cultured human fibroblasts (anti-human laminin antibody plate kit, absorbance 450 nm)", "settings": "10 ng/mL epidermal growth factor added alone (Table 3 No. 2); FIG. 16", "experimental": "To measure the amount of human laminin component in the extracellular matrix present in a culture obtained according to each example described below, quantitative analysis was conducted by using a commercially available analysis kit (TakaRa, MK107). The analysis method followed the manufacturer's instructions. Specifically, the culture was added onto a 96-well plate coated with an anti-human laminin antibody, followed by incubation. Thereafter, residues were washed off, and a chromogenic enzyme-conjugated specific antibody was added, followed by incubation. Then, quantitative analysis was conducted by measurement of the absorbance at 450 nm.\nHuman fibroblasts were seeded at a density of 3×10^5 cells per 150-mm^2 culture dish. […]\nas §1"}},
  "data": [
    {"molecule": "epidermal growth factor: growth factor / ErbB signaling factor added to the serum-free/xeno-free culture medium (protein, UniProt P01133 23-1207, looked up, Pro-epidermal growth factor) Pro-epidermal growth factor: PQHWSCPEGTLAGNGNSTCVGPAPFLIFSHGNSIFRIDTEGTNYEQLVVDAGVSVIMDFHYNEKRIYWVDLERQLLQRVFLNGSRQERVCNIEKNVSGMAINWINEEVIWSNQQEGIITVTDMKGNNSHILLSALKYPANVAVDPVERFIFWSSEVAGSLYRADLDGVGVKALLETSEKITAVSLDVLDKRLFWIQYNREGSNSLICSCDYDGGSVHISKHPTQHNLFAMSLFGDRIFYSTWKMKTIWIANKHTGKDMVRINLHSSFVPLGELKVVHPLAQPKAEDDTWEPEQKLCKLRKGNCSSTVCGQDLQSHLCMCAEGYALSRDRKYCEDVNECAFWNHGCTLGCKNTPGSYYCTCPVGFVLLPDGKRCHQLVSCPRNVSECSHDCVLTSEGPLCFCPEGSVLERDGKTCSGCSSPDNGGCSQLCVPLSPVSWECDCFPGYDLQLDEKSCAASGPQPFLLFANSQDIRHMHFDGTDYGTLLSQQMGMVYALDHDPVENKIYFAHTALKWIERANMDGSQRERLIEEGVDVPEGLAVDWIGRRFYWTDRGKSLIGRSDLNGKRSKIITKENISQPRGIAVHPMAKRLFWTDTGINPRIESSSLQGLGRLVIASSDLIWPSGITIDFLTDKLYWCDAKQSVIEMANLDGSKRRRLTQNDVGHPFAVAVFEDYVWFSDWAMPSVMRVNKRTGKDRVRLQGSMLKPSSLVVVHPLAKPGADPCLYQNGGCEHICKKRLGTAWCSCREGFMKASDGKTCLALDGHQLLAGGEVDLKNQVTPLDILSKTRVSEDNITESQHMLVAEIMVSDQDDCAPVGCSMYARCISEGEDATCQCLKGFAGDGKLCSDIDECEMGVPVCPPASSKCINTEGGYVCRCSEGYQGDGIHCLDIDECQLGEHSCGENASCTNTEGGYTCMCAGRLSEPGLICPDSTPPPHLREDDHHYSVRNSDSECPLSHDGYCLHDGVCMYIEALDKYACNCVVGYIGERCQYRDLKWWELRHAGHGQQQKVIVVAVCVVVLVMLLLLSLWGAHYYRTQKLLSKNPKNPYEESSRDVRSRRPADTEDGMSSCPQPWFVVIKEHQDLKNGGQPVAGEDGQAADGSMQPTSWRQEPQLCGMGTEQGCWIPVSSDKGSCPQVMERSFHMPSYGTQTLEGGVEKPHSLLSANPLWQQRALDPPHQMELTQ", "values": [
      {"measurement": "amount of extracellular matrix produced, compared among growth factor groups", "setting": "Human fibroblasts [1]; 10 ng/mL epidermal growth factor added alone, compared with FGF-2, KGF and combinations (Table 3)", "value": "highest amount"},
      {"measurement": "amount of extracellular matrix produced", "setting": "Human fibroblasts [1]; factor individually removed from serum-free/xeno-free culture medium (Table 1), compared with medium containing all factors, FIGS. 8 and 9", "value": "significantly reduced"},
      {"measurement": "total collagen concentration", "setting": "Human fibroblasts [2]", "value": 56.94, "unit": "µg/mL"},
      {"measurement": "laminin concentration", "setting": "Human fibroblasts [3]", "value": 2.68, "unit": "µg/mL"}
    ]}
  ]
}
